Measured values taken from article PMC2814945 (Peptides, 2009).
Residue numbers refer to the chain shown, from its start.

T1: HA-tagged human Neuropeptide S receptor, D105A mutant in the N107 background (human, UniProt Q6W5P4 1-371, D105A)
T1 sequence (looked up): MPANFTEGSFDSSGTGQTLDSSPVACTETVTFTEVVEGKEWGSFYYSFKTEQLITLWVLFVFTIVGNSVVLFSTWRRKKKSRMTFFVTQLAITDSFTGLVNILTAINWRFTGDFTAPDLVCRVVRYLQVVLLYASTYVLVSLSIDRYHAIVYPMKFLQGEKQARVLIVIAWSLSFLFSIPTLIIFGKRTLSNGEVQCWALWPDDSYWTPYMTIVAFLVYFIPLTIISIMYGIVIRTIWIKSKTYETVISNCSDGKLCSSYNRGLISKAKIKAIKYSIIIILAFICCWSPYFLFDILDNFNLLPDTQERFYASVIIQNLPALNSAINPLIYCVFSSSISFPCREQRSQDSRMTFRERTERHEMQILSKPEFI

T2: HA-tagged human Neuropeptide S receptor, N107 variant (human, UniProt Q6W5P4 1-371)
T2 sequence (looked up): T1 sequence (looked up) with A105D

T3: HA-tagged human Neuropeptide S receptor, I107 variant (human, UniProt Q6W5P4 1-371, N107I)
T3 sequence (looked up): T1 sequence (looked up) with A105D, N107I

T4: HA-tagged human Neuropeptide S receptor, N101A mutant in the N107 background (human, UniProt Q6W5P4 1-371, N101A)
T4 sequence (looked up): T1 sequence (looked up) with N101A, A105D

B1: Neuropeptide S (human) (peptide, UniProt P0C0P6 70-89, looked up)
peptide: SFRNGVGTGMKKTSFQRAKS

Columns and labels:
[1] = molecular target: HA-tagged human Neuropeptide S receptor, D105A mutant in the N107 background (human) (UniProt Q6W5P4)
[2] = molecular target: T1, HA-tagged human Neuropeptide S …; test: radioligand binding
[3] = molecular target: T2, HA-tagged human Neuropeptide S …; test: radioligand binding
[4] = molecular target: T3, HA-tagged human Neuropeptide S …; test: cell-based or functional assay
[5] = molecular target: T4, HA-tagged human Neuropeptide S …; test: cell-based or functional assay
[6] = molecular target: T1, HA-tagged human Neuropeptide S …; test: cell-based or functional assay
[7] = molecular target: T2, HA-tagged human Neuropeptide S …; test: cell-based or functional assay

| Molecule | EC50 of receptor activation by human NPS 1-18 (unpublished data) [1] [nM] | IC50 [2] [nM] | IC50 [3] [nM] | EC50 of NPS-mediated mobilisation of intracellular Ca2+ (FLIPR), stable clone #4 [4] [nM] | EC50 of NPS-mediated mobilisation of intracellular Ca2+ (FLIPR), stable clone #5 [4] [nM] | EC50 of NPS-mediated mobilisation of intracellular Ca2+ (FLIPR), stable clone #2 [5] [nM] | EC50 of NPS-mediated mobilisation of intracellular Ca2+ (FLIPR), stable clone #6 [5] [nM] | EC50 of receptor activation by human NPS 1-20 (unpublished data) [6] [nM] | EC50 of NPS-mediated mobilisation of intracellular Ca2+ (FLIPR), stable clone #2 [7] [nM] | EC50 of NPS-mediated mobilisation of intracellular Ca2+ (FLIPR), stable clone #4 [7] [nM] |
| --- | --- | --- | --- | --- | --- | --- | --- | --- | --- | --- |
| human NPS 1-18 (peptide) | 1000 | – | – | – | – | – | – | – | – | – |
| B1 | – | > 200 | 8.7 ± 1.9 | 1.6 | 1.7 | 12 | 42 | ~1000 | 25 | 4.9 |
